This is an account of results in patent publication US20130084293A1 (LA JOLLA INSTITUTE FOR ALLERGY AND IMMUNOLOGY, published 2013).

The data set deals with the molecule itself. Description: self-association: reducing and non-reducing SDS-PAGE and size exclusion chromatography of purified mHRF-His6. On the technique in general: Size exclusion chromatography separates by hydrodynamic size, large species first.

B1: C-terminally hexahistidine-tagged mouse HRF (mHRF-His6) (ligand)
chain: MIIYRDLISHDELFSDIYKIREIADGLCLEVEGKMVSRTEGAIDDSLIGGNASAEGPEGEGTESTVVTGVDIVMNHHLQETSFTKEAYKKYIKDYMKSLKGKLEEQKPERVKPFMTGAAEQIKHILANFNNYQFFIGENMNPDGMVALLDYREDGVTPFMIFFKDGLEMEKCHHHHHH
notes: Expressed in E. coli BL21(DE3) from pET-24a(+)
With B1, the binding result is “binds”.
